Laboratory results as given in patent US20140170149A1 (Genmab, published 2014).

B1: HER2 HuMab 025 (antibody, V domains shown)
VH: QVQLQQWGAGLLKPSETLSLTCAVYGGSFSDYYWNWIRQPPGKGLEWIGEIHHSGSTNYNPSLKSRVTISVDTSKNQFSLKLSSVTAADTAVYYCARGYYDSGVYYFDYWAQGTLVTVSS
VL: DIQMTQSPSSLSASVGDRVTITCRASQGISRWLAWYQQKPEKAPKSLIYAASSLRSGVPSRFSGSGSGTDFTLTISSLQPEDFATYYCQQYNSYPITFGQGTRLEIK
notes: also called PC1014-025; TH1014-025
B2: HER2 HuMab 091 (antibody, V domains shown)
VH: QVQLQQWGAGLLKPSETLSLTCAVSGGSFSGYYWTWIRQPPGKGLEWIGEIYHSGDTNYNPSLKSRVTISVDTSKNQFSLKLYSVTAADTAVYYCARLYFGSGIYYLDYWGQGTLVTVSS
VL: DIQMTQSPSSLSASVGDRVTITCRASQGISSWLVWYQQKPEKAPKSLIYAASSLQSGVPSRFSGSGSGTDFTLTISSLQPEDFATYYCQQYNSFPPTFGQGTKVEIK
notes: also called PC1014-091
B3: HER2 HuMab 129 (antibody, V domains shown)
VH: QVQLVESGGGVVQPGRSLRLSCAASGFTFSTFAIHWVRQAPGKGLEWVAVISYDGGHKFYADSVKGRFTISRDNSKNTLYLQMNSLRAEDTAMYYCARGLGVWGAFDYWGQGTLVTVSS
VL: EIVLTQSPATLSLSPGERATLSCRASQSVSSYLAWYQQKPGQAPRLLIYDASNRATGIPARFSGSGSGTDFTLTISSLEPEDFAVYYCQQRSNWWTFGQGTKVEIK
notes: also called PC1014-129
B4: HER2 HuMab 169 (antibody, V domains shown)
VH: QVQLVQSGAEVKKPGASVKVSCKASGYTFTNYGISWVRQAPGQGLEWMGWLSAYSGNTIYAQKLQGRVTMTTDTSTTTAYMELRSLRSDDTAVYYCARDRIVVRPDYFDYWGQGTLVTVSS
VL: EIVLTQSPATLSLSPGERATLSCRASQSVSSYLAWYQQKPGQAPRLLIYDASNRATGIPARFSGSGSGTDFTLTISSLEPEDFAVYYCQQRSNWPRTFGQGTKVEIK
B5: HER2 HuMab 084 (antibody, V domains shown)
VH: QVQLVQSGAEVKKPGSSVKVSCKASGGTFRTYAINWVRQAPGQGLEWMGRINTVLGIVNHAQKFQGRVTITADKSTNTAYMELNSLRSEDTAVYYCAREKGVDYYYGIEVWGQGTTVTVSS
VL: DIQMTQSPSSVSASVGDRVTITCRASQGISSWLAWYQHKPGKAPKLLIYVASTLQSGVPSRFSGSGSGTDFTLTISSLQPEDFATYYCQQANSFPLTFGGGTKVEIK
notes: also called PC1014-084
B6: HER2 HuMab 098 (antibody, V domains shown)
VH: EVQLLESGGGLVQPGGSLRLSCAASGFTFSNYGMSWVRQAPGKGLEWVSAISGSAYSTYYADSVKGRFTISRDNSKNTLWLQMNSLRAEDTAVYYCAKAHYHGSGSYYTLFDYWGQGTLVTVSS
VL: DIQMTQSPSSLSASVGDRVTITCRASQGISSWLAWYQQKPEKAPKSLIYAASSLQSGVPSRFSGSGSGTDFTLTISSLQPEDFATYYCQQYNSYPYTFGQGTKLEIK
notes: also called PC1014-098; TH1014-098
B7: HER2 HuMab 127 (antibody, V domains shown)
VH: EVQLVQSGAEVKKPGESLTISCKGSGYSFSIYWIGWVRQMPGKGLEWMGIIFPGDSDIRYSPSFQGQVTISADKSISTAYLQWSSLKASDTAMYYCARQPGDWSPRHWYFDLWGRGTLVTVSS
VL: VIWMTQSPSLLSASTGDRVTISCRMSQGISSYLAWYQQKPGKAPELLIYAASTLQSGVPSRFSGSGSGTDFTLTISYLQSEDFATYYCQQYYSFPLTFGGGTKVEIK
B8: HER2 HuMab 159 (antibody, V domains shown)
VH: EVQLVQSGAEVKKPGESLKISCKGSGYNFTSYWIGWVRQMPGKGLEWMGIIYPGDSDTRYSPSFQGQVTISADKSISTAYLQWSSLKASDTAMYYCARWGTYYDILTGYFNWFDPWGQGTLVTVSS
VL: DIQMTQSPSSLSASVGDRVTITCRASQGISSWLAWYQQKPEKAPKSLIYAASSLQSGVPSRFSGSGSGTDFTLTISSLQPEDFATYYCQQYYIYPWTFGQGTKVEIK
notes: also called PC1014-159
B9: HER2 HuMab 132 (antibody, V domains shown)
VH: QVQLVQSGAEVKKPGASVKVSCKASGYTFTSYGISWVRQAPGQGLEWMGWISAYNGNSNYVQKFQGRVTMTTDTTTSTAYMELRSLTSDDTAVYYCAREYSYDSGTYFYYGMDVWGQGTTVTVSS
VL: EIVLTQSPATLSLSPGERATLSCRASQSVSSYLAWYQQKPGQAPRLLIYDASNRATGIPARFSGSGSGTDFTLTISSLEPEDFAVYYCQQRSNWPMYTFGQGTKLEIK
notes: also called PC1014-132
B10: HER2 HuMab 005 (antibody, human IgG1, V domains shown)
VH: EVQLVQSGAEVKKPGESLKISCKASGYSFHFYWIGWVRQMPGKGLEWMGSIYPGDSDTRYRPSFQGQVTISADKSISTAYLQWTSLKASDTAIYYCARQRGDYYYFYGMDVWGQGTTVTVSS
VL: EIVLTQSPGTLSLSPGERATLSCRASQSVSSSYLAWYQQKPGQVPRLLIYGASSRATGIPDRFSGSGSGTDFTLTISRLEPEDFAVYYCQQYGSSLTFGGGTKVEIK
notes: Human IgG1,κ; also called PC1014-005; TH1014-005
B11: HER2 HuMab 111 (antibody, V domains shown)
VH: QVQLVQSGAEVKKPGSSVKVSCKASGGTFSSYGISWVRQAPGPGLEWMGRIIPILGIANYAQKFQGRVTITADKSTNTAYMELSSLRSEDTAVYYCARDQEYSSNWYYWGQGTLVTVSS
VL: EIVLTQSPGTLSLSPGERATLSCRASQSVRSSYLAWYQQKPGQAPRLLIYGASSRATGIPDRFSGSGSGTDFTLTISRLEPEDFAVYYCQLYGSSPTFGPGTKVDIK
notes: also called PC1014-111
B12: HER2 HuMab 059 (antibody, V domains shown)
VH: QVQLVQSGAEVKKPGASVRVPCKASGYTFTRYGISWVRQAPGQGLEWMGWISAYNGKTYYAQKLQGRVTMTTDTSTSTAYMELRSLRSDDTAVYYCARSPLLWFEELYFDYWGQGTLVTVSS
VL: EIVLTQSPGTLSLSPGERATLSCRASQSVSSTYLAWYQQKPGQAPRLLIYGASSRATGIPDRFSGSGSGTDFTLTISRLEPEDFAVYYCQQYGTSLFTFGPGTKVDIK
notes: also called PC1014-059
B13: HER2 HuMab 060 (antibody, V domains shown)
VH: EVQLVQSGAEVKKPGESLKISCKGSGYRFTSYWIGWVRQMPGKGLEWMGSIYPGDSYTRNSPSFQGQVTISADKSIATAYLQWNSLKASDTAMYYCARHAGDFYYFDGLDVWGQGTTVTVSS
VL: not shown
notes: also called PC1014-060
B14: HER2 HuMab 106 (antibody, V domains shown)
VH: EVQLVQSGAEVKKPGESLKISCKGSGYSFTRYWIGWVRQMPGKGLEWMGIIYPGDSDTRYSPSFQGQVTISADKSISTAYLQWSSLKASDTAMYYCARLTGDRGFDYYSGMDVWGQGTTVTVSS
VL: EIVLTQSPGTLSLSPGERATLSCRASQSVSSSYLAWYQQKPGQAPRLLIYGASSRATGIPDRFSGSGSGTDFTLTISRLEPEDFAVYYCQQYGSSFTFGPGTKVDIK
B15: HER2 HuMab 050 (antibody, V domains shown)
VH: EVQLLESGGGLVQPGGSLRLSCAASGFTFSSYAMNWVRQAPGKGLEWVSAISGRGGTTYYADSVKGRFTISRDNSKNTLYLQMSSLRAEDTAVYYCAKARANWDYFDYWGQGTLVTVSS
VL: DIQMTQSPSSVSASVGDRVTITCRASQGISSWLAWYQHKPGKAPKLLIYAASILQSGVPSRFSGSGSGTDFTLTISSLQPEDFATYYCQQANSFPITFGQGTRLEIK
notes: also called PC1014-050
B16: IgG1-hu-CLB-T3/4-F405L (antibody, V domains shown)
VH: EVQLVESGGGLVKPGGSLRLSCAASGFTFSSYGMFWVRQAPGKGLEWVATISRYSRYIYYPDSVKGRFTISRDNAKNSLYLQMNSLRAEDTAVYYCARRPLYGSSPDYWGQGTLVTVSS
VL: EIVLTQSPATLSLSPGERATLSCSASSSVTYVHWYQQKPGQAPRLLIYDTSKLASGIPARFSGSGSGTDFTLTISSLEPEDFAVYYCFQGSGYPLTFGSGTKLEMR
notes: Expressed as IgG1,κ with F405L
B17: IgG1-hu-CLB-T3/4-F405L × IgG1-HER2-153-K409R (bispecific antibody)
heavy 1: not shown
VL 1: DIQMTQSPSSLSASVGDRVTITCRASQGISSWLAWYQQKPEKAPKSLIYDASSLQSGVPSRFSGSGYGTDFSLTISSLQPEDFAIYYCQQYKSYPITFGQGTRLEIK
heavy 2: not shown
VL 2: EIVLTQSPATLSLSPGERATLSCSASSSVTYVHWYQQKPGQAPRLLIYDTSKLASGIPARFSGSGSGTDFTLTISSLEPEDFAVYYCFQGSGYPLTFGSGTKLEMR
notes: Made by 2-MEA-induced Fab-arm exchange; IgG1,κ; also called huCLB-T3/4×HER2 153

Tests used:
[1] = target: T1, human epidermal growth factor receptor 2 (HER2) (human, UniProt P04626 23-1255); test: flow cytometry on AU565 cells (high HER2), PE-goat anti-human IgG, MFI; EC50 by non-linear regression (Example 12)
T1 construct: whole, on cells; One entry for endogenous HER2 on tumor cell lines and for the fully human construct hu-HER2 on CHO-S cells; also called ErbB-2; hu-HER2
Experimental: (§1) Binding of HER2 antibodies was detected using a Phycoerythrin (PE)-conjugated goat-anti-human IgG antibody (Jackson). […] EC₅₀ values were determined by means of non-linear regression (sigmoidal dose-response with variable slope) using GraphPad Prism V4.03 software (GraphPad Software, San Diego, Calif., USA).

[2] = target: T1, human epidermal growth factor receptor …; test: cell-based or functional assay
[3] = target: T1, human epidermal growth factor receptor …; test: flow cytometry on A431 cells (low HER2), PE-goat anti-human IgG, MFI; EC50 by non-linear regression (Example 12)
Experimental: as §1

[4] = target: T1, human epidermal growth factor receptor …; test: flow cytometry on AU565 cells (high HER2), PE-goat anti-human IgG, MFI; EC50 by non-linear regression (Example 12); remark: listed apart in the source
Experimental: as §1

[5] = target: T1, human epidermal growth factor receptor …; test: flow cytometry on A431 cells (low HER2), PE-goat anti-human IgG, MFI; EC50 by non-linear regression (Example 12); remark: listed apart in the source
Experimental: as §1

[6] = target: T1, human epidermal growth factor receptor …; test: flow cytometry on AU565 cells (high HER2), PE-goat anti-human IgG, MFI; EC50 by non-linear regression (Example 12); remark: listed apart in the source
Experimental: as §1

[7] = target: T1, human epidermal growth factor receptor …; test: flow cytometry on A431 cells (low HER2), PE-goat anti-human IgG, MFI; EC50 by non-linear regression (Example 12); remark: listed apart in the source
Experimental: as §1

[8] = target: T2, human CD3 protein complex (human, UniProt P07766 23-207; P09693 23-182; P04234 22-171; P20963 22-164); test: flow cytometry on Jurkat cells (CD3-expressing T cell line), MFI (PE) (Example 21)
T2 construct: whole, on cells; also called CD3 on Jurkat cells
T2 sequence (P07766 23-207, form in doubt, chain 1 of 4): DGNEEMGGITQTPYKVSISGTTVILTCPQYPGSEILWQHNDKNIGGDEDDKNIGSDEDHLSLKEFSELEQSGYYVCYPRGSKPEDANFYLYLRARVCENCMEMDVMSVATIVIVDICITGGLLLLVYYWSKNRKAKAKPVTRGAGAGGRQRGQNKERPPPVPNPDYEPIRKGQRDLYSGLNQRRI
T2 sequence (P09693 23-182, form in doubt, chain 2 of 4): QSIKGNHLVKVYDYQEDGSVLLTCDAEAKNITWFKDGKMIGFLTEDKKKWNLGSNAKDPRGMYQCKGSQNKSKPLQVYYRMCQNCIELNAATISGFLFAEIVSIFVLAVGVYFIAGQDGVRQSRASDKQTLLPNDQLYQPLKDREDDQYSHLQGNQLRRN
T2 sequence (P04234 22-171, form in doubt, chain 3 of 4): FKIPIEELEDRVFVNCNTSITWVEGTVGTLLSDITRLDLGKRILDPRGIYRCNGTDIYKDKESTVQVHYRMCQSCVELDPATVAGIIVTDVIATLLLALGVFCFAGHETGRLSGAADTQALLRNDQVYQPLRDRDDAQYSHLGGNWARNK
T2 sequence (P20963 22-164, form in doubt, chain 4 of 4): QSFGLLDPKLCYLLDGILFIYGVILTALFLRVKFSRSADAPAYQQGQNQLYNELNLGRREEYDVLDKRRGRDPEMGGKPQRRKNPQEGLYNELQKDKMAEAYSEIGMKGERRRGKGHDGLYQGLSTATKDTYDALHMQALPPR

Binder | EC50 [1] | EC50, fab-CypHer5E internalization assay, AU565 cells [2] | Maximal MFI, fab-CypHer5E internalization assay, AU565 cells [2] | EC50 [3] | EC50 [4] | EC50 [5] | EC50 [6] | EC50 [7] | EC50 (read off the curve) [8]
B1 | 0.58 µg/mL | 0.0301 µg/mL | 63400 MFI | 0.128 µg/mL | – | – | – | – | –
B2 | 0.965 µg/mL | 0.033 µg/mL | 50700 MFI | 0.633 µg/mL | – | – | – | – | –
B3 | – | 0.00715 µg/mL | 60300 MFI | – | 0.578 µg/mL | 0.316 µg/mL | – | – | –
B4 | – | – | 38800 MFI | – | 0.908 µg/mL | 0.415 µg/mL | – | – | –
B5 | 0.491 µg/mL | 0.0305 µg/mL | 71100 MFI | 0.498 µg/mL | – | – | – | – | –
B6 | 0.336 µg/mL | 0.0138 µg/mL | 135000 MFI | 0.101 µg/mL | – | – | – | – | –
B7 | 2.29 µg/mL | ~0.00968 µg/mL | 138000 MFI | 0.27 µg/mL | – | – | – | – | –
B8 | – | – | 92400 MFI | – | 1.3 µg/mL | 0.855 µg/mL | – | – | –
B9 | – | 0.0114 µg/mL | 112000 MFI | – | 0.911 µg/mL | 0.068 µg/mL | – | – | –
B10 | – | 0.0214 µg/mL | 95100 MFI | – | – | – | 0.818 µg/mL | 0.789 µg/mL | –
B11 | – | 0.0352 µg/mL | 81700 MFI | – | – | – | 0.915 µg/mL | 0.996 µg/mL | –
B12 | – | 0.0148 µg/mL | 77100 MFI | – | – | – | 1.31 µg/mL | 0.213 µg/mL | –
B13 | – | 0.0362 µg/mL | 68200 MFI | – | – | – | 2.68 µg/mL | 1.98 µg/mL | –
B14 | – | 0.0686 µg/mL | 57400 MFI | – | – | – | 1.55 µg/mL | 1.66 µg/mL | –
B15 | 0.722 µg/mL | – | – | 1.14 µg/mL | – | – | – | – | –
B16 | – | – | – | – | – | – | – | – | ~0.03 µg/mL
B17 | – | – | – | – | – | – | – | – | ~0.2 µg/mL
